Data taken from paper PMC6938701 (Science Advances, 2020).

Biological target: the molecule itself
Assay: non-reducing SDS-PAGE with Western blot

B1: Recombinant human Prx2 (peroxiredoxin 2) (enzyme, UniProt P32119 2-198, looked up)
chain: ASGNARIGKPAPDFKATAVVDGAFKEVKLSDYKGKYVVLFFYPLDFTFVCPTEIIAFSNRAEDFRKLGCEVLGVSVDSQFTHLAWINTPRKEGGLGPLNIPLLADVTRRLSEDYGVLKTDEGIAYRGLFIIDGKGVLRQITVNDLPVGRSVDEALRLVQAFQYTDEHGEVCPAGWKPGSDTIKPNVDDSKEYFSKHN
- stoichiometry N: 2
